As a reminder, the stoichiometry N is the number of molecules, sites or subunits per partner or assembly. For orientation: Km means the substrate concentration at which the rate is half of its maximum. A word on the kcat: it is the number of substrate molecules converted per active site and unit of time at saturation.

The record followed here is article PMC4690510, “Crystal structure of a novel two domain GH78 family α-rhamnosidase from Klebsiella oxytoca with rhamnose bound” (Proteins, 2015).

In series [1] the target is α-L-rhamnosidase from Klebsiella oxytoca (KoRha) (Klebsiella oxytoca KCTC 1686). Description: dynamic light scattering; purified KoRha in solution, DynaPro-Titan instrument, 20°C; hydrodynamic radius 4.8 nm.
Substrate in the series “purified protein”: C[C@@H]1O[C@@H](Oc2ccc([N+](=O)[O-])cc2)[C@H](O)[C@H](O)[C@H]1O
Nature of the series: purified protein. It counts as biochemical, Klebsiella oxytoca. Particulars: 20 mM MES pH 5.0, 10% DMSO in substrate solution.

In series [1], “α-L-rhamnosidase from Klebsiella oxytoca (KoRha) (enzyme)” showed a stoichiometry N of 2.

B1: KoRha (Klebsiella oxytoca) (protein)
chain: MSQAIQHNSQVMMTRHPNFLRTAEALRPALSRQAHPPIAVVEAHADAAALFGWRAEPVSTLAAFYQRELSSGDSVIIDFGSHYVGYLHFLCQSAGSPPDAPAHLQLTFGETLSEVCEPFSDYQGWLSSSWLQQQDLWLDVLPAEIDLPRRYCFRYLKVEVKAVSRKFRLQFTQIEVNAVTSASGACPAATTSDPQLRAIDNVAVLTLQNCMQEVFEDGPKRDRRLWLGDLRLQALVNDVTFARHDLVRRCLYLFAGHTREDGMVSANVFVQPDVIADDTFLFDYSLFFVDVLYNYLQSAEDMATARELWPTARRQVELALTRCDASGVVRDSDDWWVFIDWQASLNKQAAAQGVLIYCLQRAIWLAERFEPELAVSYRQRLQQLKSAALDALWDPQQGFYVSGARRQVSWASQIWLVLAEVGTPQQRREIMRNLEKNPPAVAMNTPYLRHHYIAALLQCGLRDEAIAQIKAYWGAMVDYGADTFWEIFDPAHPDFSPYGSKLINSYCHAWSCTPAWFIRQYGL
notes: synthetic codon-optimised gene in pET15b, E. coli BL21(DE3); residues 11-523 modelled
Take B1: in “purified protein”, the Km is 210 ± 20 µM and the kcat came out at 0.98 s⁻¹.
